Measurements: article PMC10022506 (Journal of Agricultural and Food Chemistry, 2023)

Legend:
C=O = assay: purified protein; conditions: apparent, 100 mM pyruvate, 1 mM Mg2+, 50 mM CHES pH 9.0, 45 °C
EcYfaU = target: T1, EcYfaU (Escherichia coli, UniProt P76469); assay: aldol condensation, HPLC; assay type: biochemical; conditions: co-substrate pyruvate; substrate inhibition at high concentration
T1 sequence (P76469 1-267): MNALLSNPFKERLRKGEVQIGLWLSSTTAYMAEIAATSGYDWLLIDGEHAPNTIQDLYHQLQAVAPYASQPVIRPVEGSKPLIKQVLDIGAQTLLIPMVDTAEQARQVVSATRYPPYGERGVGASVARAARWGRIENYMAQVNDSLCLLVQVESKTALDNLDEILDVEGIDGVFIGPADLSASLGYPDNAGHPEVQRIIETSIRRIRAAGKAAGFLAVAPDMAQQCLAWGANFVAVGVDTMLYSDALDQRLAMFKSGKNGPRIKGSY

| Compound | Km (C=O) [mM] | kcat (C=O) [s⁻¹] | kcat/Km (C=O) [M⁻¹ s⁻¹] | aldol condensation, HPLC (EcYfaU) |
| --- | --- | --- | --- | --- |
| PaADL (Pseudomonas aeruginosa; L241A) | 65 ± 5.9 | 7.2 | 110 | – |
| PaADL (Pseudomonas aeruginosa; L241A/V121A) | 35 ± 4.4 | 6.63 | 183 | – |
| PaADL (Pseudomonas aeruginosa; V121A) | 35 ± 4.9 | 5.8 | 167 | – |
| C=O [formaldehyde] | – | – | – | we measured the activity of EcYfaU at different substrate concentrations (Figure S7) |
